Our source for the amyloid nucleation score values is the supplement of paper PMC12042874.

± gives the uncertainty stated by the source.

The data set is described as follows: amyloid nucleation score (Sup35N fusion, yeast selection) (log enrichment); library NNK2; higher = more nucleation; inactive = no reads after selection. An outline of the steps: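 Sup35N was fused to peptides of 20 random codons and expressed in psi-negative yeast, which were induced with 100 μM copper sulfate for 24 hours and then grown on medium lacking adenine and uracil for 7 days at 30°C. Plasmid inserts from input and output were sequenced on Illumina. The nucleation score is the DiMSum log enrichment of output over input reads, centred on the mode score of non-aggregating sequences. Sequences with under 100 input reads were left out, and random libraries had three technical output replicates.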
For the substance FSFEWMFWGWTCNQGTDVVS, the amyloid nucleation score was -0.319 ± 0.54.

With IFGLNHWTVFSSPINLSTSG, the amyloid nucleation score result was “inactive”.

Substance TRLVWIFLSPM had an amyloid nucleation score of -0.169 ± 0.25.

EFLRNGLFKEVAS gave an amyloid nucleation score of 0.202 ± 0.64.

Turning to NTRNDWQS, the amyloid nucleation score came out at 2.13 ± 0.15.

In turn, SVFYHLYSHWIFIVCTNTRR came in with an amyloid nucleation score of -0.414 ± 0.43.

Turning to NKSVQARDPTV, the amyloid nucleation score result was “inactive”.

LLLTNVKW: the amyloid nucleation score result is “inactive”.

Turning to TVMNVDWFKDYLLTNFVCSD, the amyloid nucleation score was determined as 0.063 ± 0.36.

Take LKATQLYGFYMTEKCVDSSW: the amyloid nucleation score was -0.549 ± 1.

QILSRGFAPWT registered an amyloid nucleation score of -1.54 ± 0.78.

Take RGFRIVLINRCVILRSV: the amyloid nucleation score was found to be 0.198 ± 0.26.

For SWSRYGCGVYSDVGVTLLQF, the amyloid nucleation score amounted to 0.201 ± 0.63.

Substance KAWTLVRHDVLLYV returned an amyloid nucleation score of -0.316 ± 0.44.

YWGIRVCSDFGIPEFRTS registered an amyloid nucleation score of 2.05 ± 0.12.

In the case of WCKLDWLIWGIEQRP, the amyloid nucleation score came out at 0.063 ± 1.1.

SIINLTVPAHPHLNNPLRRQ yielded an amyloid nucleation score of 4.76 ± 0.075.

Take WRSGGQPCVSGSWSVTNLCV: the amyloid nucleation score was found to be 3.1 ± 0.092.

Regarding WLNHYAQLIHRARGHVWNMY, the amyloid nucleation score is -0.685 ± 0.63.

Take NRLERMLLTDTDVSEKGSLG: the amyloid nucleation score was -0.204 ± 0.54.

Regarding FLLDAPKLAEDEYPHGSDDN, the amyloid nucleation score result is “inactive”.

For the substance SREGLCCNIVYA, the amyloid nucleation score is -0.45 ± 0.37.

On to GRFIHKIVLNDGV, for which the amyloid nucleation score came out at 0.084 ± 0.56.

In the case of VPNYLCGDTLPEYYETPPDH, the amyloid nucleation score was found to be 0.224 ± 0.4.

The substance QDCKAISSCLFRLLPELSLR displayed an amyloid nucleation score of -0.92 ± 1.1.

Turning to AISVKKWSFHEKKRNTMLT, the amyloid nucleation score was -0.027 ± 0.28.

Substance VSIYLG came in with an amyloid nucleation score of 2.72 ± 0.15.

In the case of HNLNKTGDKRFYTLFVSSPR, the amyloid nucleation score amounted to 0.012 ± 1.

SAGFCFNNCFVFASGDYVNR yielded an amyloid nucleation score of 7.493 ± 0.047.

As for NGLESYDFTQLY, the amyloid nucleation score is -0.667 ± 0.64.

Turning to LLGSYI, the amyloid nucleation score entry is “inactive”.

In the case of KYFIASLDQFSYISVHNEVV, the amyloid nucleation score result was “inactive”.

The substance PFLVLSWDRCN registered an amyloid nucleation score of -0.288 ± 1.1.

For the substance NSAIVLHTSYIHFVFYSVFY, the amyloid nucleation score was -0.403 ± 0.63.

As to CMARPMSVLECHSCWEDALG, the amyloid nucleation score worked out at 0.221 ± 0.31.

For the substance EDIGSVMGVSRAFCWQRAIC, the amyloid nucleation score is -0.666 ± 0.79.

Turning to RYMCGRGHRCF, the amyloid nucleation score was found to be 3.04 ± 0.087.

Turning to SIIYISWSVRHHYVKVG, the amyloid nucleation score was -0.666 ± 0.46.

For the substance CVHTAVVRILIRAKKAGLIT, the amyloid nucleation score result was “inactive”.

As to HTSVFFRKKPGSCISRSLSL, the amyloid nucleation score result is “inactive”.

On to PISNAYCMGTNRSLRIGIRC, for which the amyloid nucleation score worked out at 0.641 ± 0.21.

Take KNYGYNIN: the amyloid nucleation score amounted to 1.83 ± 0.17.

The substance NDFFIFSQEYPYKRMFLQLL yielded an amyloid nucleation score of -1.35 ± 0.53.

HYFEIVA: the amyloid nucleation score is -0.315 ± 0.45.

As to CNRPGSGTHGRCTVMDSTMG, the amyloid nucleation score came to 0.389 ± 0.56.

LWQVRIRPQH had an amyloid nucleation score of 1.37 ± 0.12.

As to IFIPSFWGIFTIPM, the amyloid nucleation score was -1.01 ± 1.

With DEIIQRWIFNFIWDRLFYLR, the amyloid nucleation score was 0.94 ± 0.14.

The substance YLRDVYSSIFAPGMRYPQTR returned an amyloid nucleation score of 2.22 ± 0.094.

As for YSFFIIVSALIGRWAS, the amyloid nucleation score is -0.894 ± 1.1.

Regarding NNRHLSPVVRSY, the amyloid nucleation score result was “inactive”.

With ASGLLPDLDVEKEDRCGIYE, the amyloid nucleation score came to 0.859 ± 0.52.

Turning to RHKMWVFRT, the amyloid nucleation score result is “inactive”.

As for LYNCVRYSSYLFNVVPCRGG, the amyloid nucleation score result was “inactive”.

As for YSVEYFCHMFSLTCFNKF, the amyloid nucleation score was found to be 7.388 ± 0.057.

As for MLYYTCTQQHTDFLRCF, the amyloid nucleation score is -0.391 ± 0.32.

WLWNNG showed an amyloid nucleation score of 0.485 ± 0.74.

As to VRKGHPYALELLSCYVGCQP, the amyloid nucleation score turned out to be 1.18 ± 0.25.

Substance YMMMIDL returned an amyloid nucleation score of -1.26 ± 0.64.

Take FSRTSPIRQMIWKFLDCQPA: the amyloid nucleation score is -0.978 ± 0.41.

Regarding ALFSIITVFSVRLVVWT, the amyloid nucleation score result was “inactive”.

For WYVDSLLWEILSALECCVFM, the amyloid nucleation score result is “inactive”.

Take LFNVMFRSLMVGWMYHENGL: the amyloid nucleation score was found to be 0.525 ± 0.44.

As to TRPRVKPWAMFRNIYD, the amyloid nucleation score is -1.33 ± 0.44.

NNSMLLSDTLLGYRRTGLDC gave an amyloid nucleation score of -0.176 ± 0.3.

With WSANVPQWLLTRPYFDSHHN, the amyloid nucleation score entry was “inactive”.

DLQSRDYPMADIVHIGIQRH yielded an amyloid nucleation score of -0.754 ± 0.34.

Take TWMGVHVRSYHQHC: the amyloid nucleation score was determined as 0.878 ± 0.42.

VDFTCLYSVNFRIHVYISDM displayed an amyloid nucleation score of 2.71 ± 0.2.

In turn, SLNVVMGAD displayed an amyloid nucleation score of -1.15 ± 0.76.

In turn, VIVWFWRFQNMNVAREFMAE registered an amyloid nucleation score of -0.297 ± 0.37.

Turning to PYLFMESMKD, the amyloid nucleation score worked out at 0.117 ± 0.79.

The substance DVAYRVVDKRIQRVAKCMYM gave an amyloid nucleation score of -0.194 ± 0.6.

CIFYKVGLFFPCWYIVSVLS came in with an amyloid nucleation score of -2.03 ± 0.75.

Regarding LSHMFVTALIVIEKFCLTAL, the amyloid nucleation score was 0.111 ± 0.39.

Regarding FGIQGWLFSNSWFLILVFFL, the amyloid nucleation score entry is “inactive”.

In turn, ELNMRAYRKMSKGSYSKNSG showed an amyloid nucleation score of -0.462 ± 0.76.

As for MGFRGIHMRVCAFLRWYNNY, the amyloid nucleation score was -0.709 ± 0.33.

With MRNPYFRHCRFITRRVVFID, the amyloid nucleation score entry was “inactive”.

As for QPSFPTHCQDRFVEECINEV, the amyloid nucleation score entry is “inactive”.

KHCMCYLLWNI gave an amyloid nucleation score of -0.422 ± 1.1.

In the case of FMGRMTLGHKNAWVSSDRH, the amyloid nucleation score was -1.33 ± 0.79.

In turn, PGPAKVANCGWCTYTGGTSH returned an amyloid nucleation score of 1.12 ± 0.45.

The substance YTVRKNNLVVQESMFLSKCW displayed an amyloid nucleation score of 0.855 ± 0.12.

RLKVIFRSLFHLLRAVRGSH came in with an amyloid nucleation score of -1.36 ± 0.75.

Substance MMGLGKCR yielded an amyloid nucleation score of 1.36 ± 0.33.

Take FYSGKRARMGGEGGEKTPRS: the amyloid nucleation score is -1.2 ± 0.48.

For CADFSGLFG, the amyloid nucleation score result is “inactive”.

Turning to PVCWAAFRYTYKARMKRWSK, the amyloid nucleation score was found to be 5.06 ± 0.055.

In turn, KYMINAYTAGWIGV showed an amyloid nucleation score of -1.41 ± 0.34.

DYCMFFGVTRISSLH had an amyloid nucleation score of 3.95 ± 0.073.

In turn, VTIYRGVRFGTFLPCRVRYG registered an amyloid nucleation score of 1.48 ± 0.26.

RGDHLGCSII gave an amyloid nucleation score of -0.101 ± 0.79.

YHVPSGTCATR: the amyloid nucleation score is 0.912 ± 0.58.

As for VMFTGHCVTRNDRDRLVLTY, the amyloid nucleation score was -0.522 ± 0.76.

For the substance DLQIFTLLFTR, the amyloid nucleation score result was “inactive”.

DFSWNGGNFTFVFSKCGL: the amyloid nucleation score turned out to be 2 ± 0.22.

Substance LVDLWSRRGCKKLVRYVESL registered an amyloid nucleation score of 0.818 ± 0.53.

Consider MEAIVERIGYITYVLNFKER, for which the amyloid nucleation score result is “inactive”.

For the substance CMYVLFLRWLNQAM, the amyloid nucleation score result is “inactive”.

Substance RCRHLLSMPLPVSFEMDGRG yielded an amyloid nucleation score of 2.85 ± 0.099.

Regarding NLASRALIKLFH, the amyloid nucleation score was -0.538 ± 0.48.

As for CWGGISSALRQ, the amyloid nucleation score was 0.698 ± 0.8.

For FNRGKVMCVAYNGCSRYLMD, the amyloid nucleation score is -1.64 ± 0.75.

The substance LHIDGNENRFLHRDGKRQEA yielded an amyloid nucleation score of 0.245 ± 0.39.

Consider DWWSDDSRLGNLLRFSKRSF, for which the amyloid nucleation score is -0.636 ± 0.76.

As to SDAIKWIYL, the amyloid nucleation score was 0.335 ± 0.29.

The substance NHITMFDRVSYYVKLKHYVA gave an amyloid nucleation score of 0.452 ± 0.37.

For the substance MTRYDDRFVQNRSSWLDNFD, the amyloid nucleation score is -0.909 ± 0.48.

Turning to GASPWPHTTMIFISILSNCV, the amyloid nucleation score stood at 3.37 ± 0.11.

In turn, LYIHVDWLAWKTHVRQTKVT gave an amyloid nucleation score of -0.455 ± 1.1.

The substance SPLEKATRFPTWEQCTVASM had an amyloid nucleation score of 0.405 ± 0.23.

The substance FCSSIVMVNSQCFVKSFSTK displayed an amyloid nucleation score of 6.311 ± 0.028.

For HRYEKSAHTVVWSIMVFS, the amyloid nucleation score came out at 0.033 ± 0.45.

As for PRPRWRYCFACRLAVFGTVG, the amyloid nucleation score was found to be 6.83 ± 0.036.

Consider LFHFGNCSRIRGWGICVTSL, for which the amyloid nucleation score was -0.506 ± 0.55.

Consider TCVCDIYSSTVVSFLHSNRV, for which the amyloid nucleation score was determined as 5.44 ± 0.1.

As to IWPSRSGCVSVASVRI, the amyloid nucleation score came out at 0.98 ± 0.33.

YRHDVWLEE: the amyloid nucleation score is 0.016 ± 0.23.

For LYLIRRHESCCLPNIR, the amyloid nucleation score is 0.039 ± 0.46.

KLGIDRGTVCLWLSV displayed an amyloid nucleation score of 0.401 ± 0.14.

Consider WDHLFASFFFLPLMLYGRYY, for which the amyloid nucleation score entry was “inactive”.

With GIIDMSRLVMHQITEPLLSQ, the amyloid nucleation score came to 0.092 ± 0.32.

In the case of HCGMAYFH, the amyloid nucleation score was -0.111 ± 0.32.

IRLPPRRAFHNEFFVDLHRG displayed an amyloid nucleation score of -1.91 ± 0.76.

FYIKRVTAVNCDTDSSFNVL gave an amyloid nucleation score of -0.805 ± 0.42.

IHRGWSWMQSRILDVGSR: the amyloid nucleation score worked out at 0.162 ± 0.54.

CSCSVIGWFLHPVATVINLT displayed an amyloid nucleation score of 2.73 ± 0.07.

The substance FFEFKDNSSWFK had an amyloid nucleation score of 3.3 ± 0.052.

Substance VCVQDRLRC displayed an amyloid nucleation score of 0.518 ± 0.5.

Regarding YMVEV, the amyloid nucleation score was 0.171 ± 0.34.

On to REVYWLMCTA, for which the amyloid nucleation score turned out to be 0.747 ± 0.47.

On to SFYRCGLNYCNGTS, for which the amyloid nucleation score is 5.94 ± 0.06.

As for REDNPRADTCMAYGV, the amyloid nucleation score came to 1.14 ± 0.35.

The substance DRCMFNYVIEVHVYSCVRFW registered an amyloid nucleation score of 4.67 ± 0.079.

PGCHEVSKF showed an amyloid nucleation score of -1.14 ± 0.47.

GYRFEAPWYNGLTVYGRIFC gave an amyloid nucleation score of -1.1 ± 0.55.

Turning to YMKVGFARWMGRPG, the amyloid nucleation score was found to be 3.89 ± 0.06.

Consider LRMMYRFGVCYVLL, for which the amyloid nucleation score was 0.399 ± 0.31.
